Data reported in patent US20230055711A1 (BIOSION, published 2023).

B1: huB1H2-V1 (antibody, human IgG1, kappa, V domains shown)
VH: EVQLVQSGAEVKKPGSSVKVSCKASGYTLTNYVMHWMRQAPGQGLEWIGFIIPFNDGTKYNEHFKGRATLTSDKSTNTAYMELSSLRSEDTAVYYCARYDFEGYFDVWGAGTLVTVSS
VL: DIQMTQSPSSLSASVGDRVTITCSASQDITNFLNWYQQKPGKTVKLLIYSTSRLHSGVPSRFSGSGSGTDYTFTISSLQPEDIATYYCQQYSNLPWTFGQGTKVEIKR
B2: huB1H2-V2 (antibody, human IgG1, kappa, V domains shown)
VH: QVQLVQSGAEVKKPGASVKVSCKASGYTLTNYVMHWVRQAPGQGLEWIGFIIPFNDGTKYNEHFKGRVTITRDTSISTAYMQLSSLRSEDTAVYYCARYDFEGYFDVWGQGTLVTVSS
VL: DIQMTQSPSSLSASVGDRVTITCSASQDITNFLNWYQQKPGKTVKLLIYSTSRLHSGVPSRFSGSGSGTDYTFTISSLQPEDIATYYCQQYSNLPWTFGQGTKVEIKR
B3: huB1H2-V3 (antibody, human IgG1, kappa, V domains shown)
VH: QVQLVQSGAEVKKPGASVKVSCKASGYTLTNYVMHWMRQAPGQGLEWIGFIIPFNDGTKYNEHFKGRVTITRDTSISTAYMQLSSLRSEDTAVYYCARYDFEGYFDVWGQGTLVTVSS
VL: DIQMTQSPSSLSASVGDRVTITCSASQDITNFLNWYQQKPGKTVKLLIYSTSRLHSGVPSRFSGSGSGTDYTFTISSLQPEDIATYYCQQYSNLPWTFGQGTKVEIKR
B4: huB1H2-V4 (antibody, human IgG1, kappa, V domains shown)
VH: QVQLVQSGAEVKKPGASVKVSCKASGYTLTNYVMHWVRQAPGQGLEWIGFIIPFNDGTKYNEHFKGRVTITSDTSISTAYMQLSSLRSEDTAVYYCARYDFEGYFDVWGQGTLVTVSS
VL: DIQMTQSPSSLSASVGDRVTITCSASQDITNFLNWYQQKPGKTVKLLIYSTSRLHSGVPSRFSGSGSGTDYTFTISSLQPEDIATYYCQQYSNLPWTFGQGTKVEIKR
B5: huB1H2-V5 (antibody, human IgG1, kappa, V domains shown)
VH: QVQLVQSGAEVKKPGASVKVSCKASGYTLTNYVMHWVRQAPGQGLEWIGFIIPFNDGTKYNEHFKGRVTITRDKSISTAYMQLSSLRSEDTAVYYCARYDFEGYFDVWGQGTLVTVSS
VL: DIQMTQSPSSLSASVGDRVTITCSASQDITNFLNWYQQKPGKTVKLLIYSTSRLHSGVPSRFSGSGSGTDYTFTISSLQPEDIATYYCQQYSNLPWTFGQGTKVEIKR
B6: huB1H2-V6 (antibody, human IgG1, kappa, V domains shown)
VH: QVQLVQSGAEVKKPGASVKVSCKASGYTLTNYVMHWVRQAPGQGLEWIGFIIPFNDGTKYNEHFKGRVTITSDKSISTAYMQLSSLRSEDTAVYYCARYDFEGYFDVWGQGTLVTVSS
VL: DIQMTQSPSSLSASVGDRVTITCSASQDITNFLNWYQQKPGKTVKLLIYSTSRLHSGVPSRFSGSGSGTDYTFTISSLQPEDIATYYCQQYSNLPWTFGQGTKVEIKR
B7: huB1H2-V13 (antibody, human IgG1, kappa, V domains shown)
VH: EVQLVQSGAEVKKPGSSVKVSCKASGYTLTNYVMHWMRQAPGQGLEWIGFIIPFNDGTKYNEHFKGRATLTSDKSTNTAYMELSSLRSEDTAVYYCARYDFEGYFDVWGAGTLVTVSS
VL: DIQMTQSPSSLSASVGDRVTITCSASQDITNFLNWYQQKPGKAVKLLIYSTSRLHSGVPSRFSGSGSGTDFTLTISSLQPEDIATYYCQQYSNLPWTFGQGTKVEIKR
B8: huB1H2-V14 (antibody, human IgG1, kappa, V domains shown)
VH: QVQLVQSGAEVKKPGASVKVSCKASGYTLTNYVMHWVRQAPGQGLEWIGFIIPFNDGTKYNEHFKGRVTITRDTSISTAYMQLSSLRSEDTAVYYCARYDFEGYFDVWGQGTLVTVSS
VL: DIQMTQSPSSLSASVGDRVTITCSASQDITNFLNWYQQKPGKAVKLLIYSTSRLHSGVPSRFSGSGSGTDFTLTISSLQPEDIATYYCQQYSNLPWTFGQGTKVEIKR
B9: huB1H2-V15 (antibody, human IgG1, kappa, V domains shown)
VH: QVQLVQSGAEVKKPGASVKVSCKASGYTLTNYVMHWMRQAPGQGLEWIGFIIPFNDGTKYNEHFKGRVTITRDTSISTAYMQLSSLRSEDTAVYYCARYDFEGYFDVWGQGTLVTVSS
VL: DIQMTQSPSSLSASVGDRVTITCSASQDITNFLNWYQQKPGKAVKLLIYSTSRLHSGVPSRFSGSGSGTDFTLTISSLQPEDIATYYCQQYSNLPWTFGQGTKVEIKR
B10: huB1H2-V16 (antibody, human IgG1, kappa, V domains shown)
VH: QVQLVQSGAEVKKPGASVKVSCKASGYTLTNYVMHWVRQAPGQGLEWIGFIIPFNDGTKYNEHFKGRVTITSDTSISTAYMQLSSLRSEDTAVYYCARYDFEGYFDVWGQGTLVTVSS
VL: DIQMTQSPSSLSASVGDRVTITCSASQDITNFLNWYQQKPGKAVKLLIYSTSRLHSGVPSRFSGSGSGTDFTLTISSLQPEDIATYYCQQYSNLPWTFGQGTKVEIKR
B11: huB1H2-V17 (antibody, human IgG1, kappa, V domains shown)
VH: QVQLVQSGAEVKKPGASVKVSCKASGYTLTNYVMHWVRQAPGQGLEWIGFIIPFNDGTKYNEHFKGRVTITRDKSISTAYMQLSSLRSEDTAVYYCARYDFEGYFDVWGQGTLVTVSS
VL: DIQMTQSPSSLSASVGDRVTITCSASQDITNFLNWYQQKPGKAVKLLIYSTSRLHSGVPSRFSGSGSGTDFTLTISSLQPEDIATYYCQQYSNLPWTFGQGTKVEIKR
B12: huB1H2-V18 (antibody, human IgG1, kappa, V domains shown)
VH: QVQLVQSGAEVKKPGASVKVSCKASGYTLTNYVMHWVRQAPGQGLEWIGFIIPFNDGTKYNEHFKGRVTITSDKSISTAYMQLSSLRSEDTAVYYCARYDFEGYFDVWGQGTLVTVSS
VL: DIQMTQSPSSLSASVGDRVTITCSASQDITNFLNWYQQKPGKAVKLLIYSTSRLHSGVPSRFSGSGSGTDFTLTISSLQPEDIATYYCQQYSNLPWTFGQGTKVEIKR
B13: huB1H2-V19 (antibody, human IgG1, kappa, V domains shown)
VH: EVQLVQSGAEVKKPGSSVKVSCKASGYTLTNYVMHWMRQAPGQGLEWIGFIIPFNDGTKYNEHFKGRATLTSDKSTNTAYMELSSLRSEDTAVYYCARYDFEGYFDVWGAGTLVTVSS
VL: DIQMTQSPSSLSASVGDRVTITCSASQDITNFLNWYQQKPGKAPKLLIYSTSRLHSGVPSRFSGSGSGTDYTLTISSLQPEDIATYYCQQYSNLPWTFGQGTKVEIKR
B14: huB1H2-V20 (antibody, human IgG1, kappa, V domains shown)
VH: QVQLVQSGAEVKKPGASVKVSCKASGYTLTNYVMHWVRQAPGQGLEWIGFIIPFNDGTKYNEHFKGRVTITRDTSISTAYMQLSSLRSEDTAVYYCARYDFEGYFDVWGQGTLVTVSS
VL: DIQMTQSPSSLSASVGDRVTITCSASQDITNFLNWYQQKPGKAPKLLIYSTSRLHSGVPSRFSGSGSGTDYTLTISSLQPEDIATYYCQQYSNLPWTFGQGTKVEIKR

Target: recombinant human BCMA-his protein (Acro biosystems, Cat #BCA-H522Y) (human) (UniProt Q02223)
Assay: BLI Octet RED96, antibody on AHC sensor, BCMA-his in solution

Sequence of recombinant human BCMA-his protein (Acro biosystems, Cat #BCA-H522Y) (human) (Q02223 1-54, stated change not applied): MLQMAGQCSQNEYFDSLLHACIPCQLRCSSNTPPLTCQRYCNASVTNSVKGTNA

In order of falling Kd:
1. B11  9.16 nM
2. B9  6.06 nM
3. B14  6 nM
4. B8  5.14 nM
5. B10  3.5 nM
6. B13  2.65 nM
7. B12  2.22 nM
8. B7  2.21 nM
9. B2  1.29 nM
10. B1  1.22 nM
11. B6  1.12 nM
12. B5  0.915 nM
13. B3  0.731 nM
14. B4  0.269 nM

In order of rising koff:
1. B4  0.00029 s⁻¹
2. B5  0.000372 s⁻¹
3. B3  0.000402 s⁻¹
4. B6  0.00044 s⁻¹
5. B1  0.000498 s⁻¹
6. B13  0.000647 s⁻¹
7. B7  0.000688 s⁻¹
8. B2  0.000742 s⁻¹
9. B10  0.000887 s⁻¹
10. B12  0.000921 s⁻¹
11. B8  0.00137 s⁻¹
12. B9  0.00137 s⁻¹
13. B14  0.00141 s⁻¹
14. B11  0.00238 s⁻¹

In order of falling kon:
1. B4  1.08e+06 M⁻¹ s⁻¹
2. B2  573000 M⁻¹ s⁻¹
3. B3  550000 M⁻¹ s⁻¹
4. B12  415000 M⁻¹ s⁻¹
5. B1  407000 M⁻¹ s⁻¹
6. B5  407000 M⁻¹ s⁻¹
7. B6  392000 M⁻¹ s⁻¹
8. B7  312000 M⁻¹ s⁻¹
9. B8  266000 M⁻¹ s⁻¹
10. B11  260000 M⁻¹ s⁻¹
11. B10  254000 M⁻¹ s⁻¹
12. B13  244000 M⁻¹ s⁻¹
13. B14  234000 M⁻¹ s⁻¹
14. B9  226000 M⁻¹ s⁻¹
